These results are taken from US20030044768A1 (Dana-Farber, published 2003).

B1: B7-2 expressed on transfected COS cells (ligand)
chain: APLKIQAYFNETADLPCQFANSQNQSLSELVVFWQDQENLVLNEVYLGKEKFDSVHSKYMGRTSFDSDSWTLRLHNLQIKDKGLYQCIIHHKKPTGMIRIHQMNSELSVLANFSQPEIVPISNITENVYINLTCSSIHGYPEPKKMSVLLRTKNSTIEYDGVMQKSQDNVTELYDVSISLSVSFPDVTSNMTIFCILETDKTRLLSSPFSIELEDPQPPPDHIPWITAVLPTVIICVMVFCLILWKWKKKKRPRNSYKCGTNTMEREESEQTKKREKIHIPERSDEAQRVFKSSKTSSCDKSDTCF
notes: whole, on cells; also called CD86
B2: soluble form of human B7-1 (ligand)
chain: VIHVTKEVKEVATLSCGHNVSVEELAQTRIYWQKEKKMVLTMMSGDMNIWPEYKNRTIFDITNNLSIVILALRPSDEGTYECVVLKYEKDAFKREHLAEVTLSVKADFPTPSISDFEIPTSNIRRIICSTSGGFPEPHLSWLENGEELNAINTTVSQDPETELYAVSSKLDFNMTTNHSFMCLIKYGHLRVNQTFNWNTTKQEHFPDN
notes: also called soluble B7-1
B3: soluble form of human B7-2 (ligand)
chain: APLKIQAYFNETADLPCQFANSQNQSLSELVVFWQDQENLVLNEVYLGKEKFDSVHSKYMGRTSFDSDSWTLRLHNLQIKDKGLYQCIIHHKKPTGMIRIHQMNSELSVLANFSQPEIVPISNITENVYINLTCSSIHGYPEPKKMSVLLRTKNSTIEYDGVMQKSQDNVTELYDVSISLSVSFPDVTSNMTIFCILETDKTRLLSSPFSIELEDPQPPPDHIP
notes: also called soluble B7-2
B4: IA^d expressed on CHO transfectants (CHO-IA^d) (other)
alpha: EDDIEADHVGFYGTTVYQSPGDIGQYTHEFDGDELFYVDLDKKKTVWRLPEFGQLILFEPQGGLQNIAAEKHNLGILTKRSNFTPATNEAPQATVFPKSPVLLGQPNTLICFVDNIFPPVINITWLRNSKSVTDGVYETSFLVNRDHSFHKLSYLTFIPSDDDIYDCKVEHWGLEEPVLKHWEPEIPAPMSELTETVVCALGLSVGLVGIVVGTIFIIQGLRSGGTSRHPGPL
beta: GNSERHFVVQFKGECYYTNGTQRIRLVTRYIYNREEYVRYDSDVGEYRAVTELGRPDAEYWNSQPEILERTRAEVDTACRHNYEGPETSTSLRRLEQPNVAISLSRTEALNHHNTLVCSVTDFYPAKIKVRWFRNGQEETVGVSSTQLIRNGDWTFQVLVMLEMTPHQGEVYTCHVEHPSLKSPITVEWRAQSESARSKMLSGIGGCVLGVIFLGLGLFIRHRSQKGPRGPPPAGLLQ
notes: present on CHO-IA^d, CHO-IA^d/B7.2 and CHO-IA^d/B7.2/B7-4; copies: 1 + 1
B5: murine ICOS-his fusion protein (receptor, UniProt Q9WVS0 21-144, looked up)
chain: EINGSADHRMFSFHNGGVQISCKYPETVQQLKMRLFREREVLCELTKTKGSGNAVSIKNPMLCLYHLSNNSVSFFLNNPDSSQGSYYFCSLSIFDPPPFQERNLSGGYLHIYESQLCCQLKLWL
notes: not shown: his tag
B6: B7-1 expressed on transfected COS cells (ligand)
chain: VIHVTKEVKEVATLSCGHNVSVEELAQTRIYWQKEKKMVLTMMSGDMNIWPEYKNRTIFDITNNLSIVILALRPSDEGTYECVVLKYEKDAFKREHLAEVTLSVKADFPTPSISDFEIPTSNIRRIICSTSGGFPEPHLSWLENGEELNAINTTVSQDPETELYAVSSKLDFNMTTNHSFMCLIKYGHLRVNQTFNWNTTKQEHFPDNLLPSWAITLISVNGIFVICCLTYCFAPRCRERRRNERLRRESVRPV
notes: whole, on cells; also called CD80
B7: murine PD-1-Fc (Fc fusion, UniProt Q02242 25-167, looked up)
chain: LEVPNGPWRSLTFYPAWLTVSEGANATFTCSLSNWSEDLMLNWNRLSPSNQTEKQAAFCNGLSQPVQDARFQIIQLPNRHDFHMNILDTRRNDSGIYLCGAISLHPKAKIEESPGAELVVTERILETSTRYPSPSPKPEGRFQ
notes: also called murine PD-1.Ig; mouse PD-1; not shown: Fc portion

Assay [1] addresses PD-1 on T cells (species not stated). The assay is described as follows: cell-based or functional assay.
Assay [2] deals with T1, human PD-1-Fc (human Ig gamma 1) (human, UniProt P01857 99-330 = IgG part).
T1 construct: domain: hinge-CH2-CH3; also called human PD-1 linked to IgG1
T1 sequence (P01857 other isoform, or with tags, fused parts or gaps limits assumed): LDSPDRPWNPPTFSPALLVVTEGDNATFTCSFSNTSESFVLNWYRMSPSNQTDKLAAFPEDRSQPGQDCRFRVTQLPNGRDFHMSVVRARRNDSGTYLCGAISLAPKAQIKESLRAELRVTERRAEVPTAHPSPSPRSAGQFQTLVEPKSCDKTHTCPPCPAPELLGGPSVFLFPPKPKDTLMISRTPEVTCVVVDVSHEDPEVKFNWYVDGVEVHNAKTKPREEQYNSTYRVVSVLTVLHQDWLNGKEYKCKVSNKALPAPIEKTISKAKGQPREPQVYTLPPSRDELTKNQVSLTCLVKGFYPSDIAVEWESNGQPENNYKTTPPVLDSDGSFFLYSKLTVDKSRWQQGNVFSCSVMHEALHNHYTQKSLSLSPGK
Briefly: in situ staining of transfected COS cell monolayers. The procedure: In addition, an in situ assay of transfected COS cell monolayers was performed. […] Binding was visualized with chromogenic substrates 5-bromo-4-chloro-3-indolyl phosphate and nitro blue tetrazolium and light microscopy.

The target in assay [3] is T1, human PD-1-Fc (human Ig gamma 1). The assay is described as follows: BIACORE, PD-1-Fc immobilized.
In assay [4] the target is T2, human PD-1 fused to murine Ig gamma2a (human; murine, UniProt P01863 98-330 = IgG part, limits assumed).
T2 construct: domain: hinge-CH2-CH3; The Fc mutations are not specified; also called human PD-1 gamma 2a fusion protein; hPD-1-Ig
T2 sequence (P01863 other isoform, or with tags, fused parts or gaps limits assumed): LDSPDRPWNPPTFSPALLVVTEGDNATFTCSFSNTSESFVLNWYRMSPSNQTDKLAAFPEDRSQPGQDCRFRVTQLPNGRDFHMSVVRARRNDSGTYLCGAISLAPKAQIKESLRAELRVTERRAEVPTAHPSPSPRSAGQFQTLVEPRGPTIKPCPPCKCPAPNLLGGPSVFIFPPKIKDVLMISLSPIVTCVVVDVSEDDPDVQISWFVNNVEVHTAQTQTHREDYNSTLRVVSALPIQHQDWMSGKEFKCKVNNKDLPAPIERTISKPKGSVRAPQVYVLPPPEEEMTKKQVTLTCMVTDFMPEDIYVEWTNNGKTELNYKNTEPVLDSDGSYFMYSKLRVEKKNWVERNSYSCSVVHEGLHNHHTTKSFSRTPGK
Briefly: flow cytometry on CHO-IA^d cells, hPD-1-Ig developed with goat anti-murine IgG2a-PE. The procedure: In addition, cells were stained separately with 5 μg/ml anti-IA^d-PE or B7.2-PE (Pharmingen, San Diego, Calif.). Following each step, cells were washed three times with PBS/1% BSA/0.02% sodium azide. After the final incubation, cells were fixed with 1% paraformaldehyde. Ten thousand events were analyzed on a FACSCalibar (Becton Dickinson, Mountain View, Calif.). All isotype controls were obtained from Pharmingen.
A general note: Flow cytometry measures light scatter and fluorescence of single cells or particles in a stream.

For assay [5], the target named is T3, human B7-4M expressed on transfected COS or CHO cells (human, UniProt Q9NZQ7 19-290).
T3 construct: Full-length B7-4M cDNA expressed on COS or CHO cells; also called PD-L1
T3 sequence (Q9NZQ7 19-290): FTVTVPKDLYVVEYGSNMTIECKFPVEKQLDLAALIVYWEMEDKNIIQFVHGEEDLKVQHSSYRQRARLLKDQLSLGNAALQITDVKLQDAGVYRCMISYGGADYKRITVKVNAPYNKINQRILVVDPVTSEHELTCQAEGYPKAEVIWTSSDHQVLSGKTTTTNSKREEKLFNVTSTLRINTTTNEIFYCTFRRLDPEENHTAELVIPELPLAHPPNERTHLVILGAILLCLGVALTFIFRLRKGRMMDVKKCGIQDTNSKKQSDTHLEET
The assay is described as follows: flow cytometry on B7-4M-transfected COS cells.

In assay [6] the target is B6. Briefly: flow cytometry (FITC) on B7-1-transfected COS cells.
Assay [7] deals with T1, human PD-1-Fc (human Ig gamma 1). The assay is described as follows: flow cytometry on B7-1-transfected COS cells, anti-IgG-PE. The procedure:
COS cells were transfected with either B7-4M or B7-1 using LipofectAMINE transfection reagent. […] The cells were then analyzed by flow cytometry.

Assay [8] has as its target T3, human B7-4M expressed on transfected …. The assay is described as follows: flow cytometry on CHO cells expressing human B7-4.
Assay [9] deals with T4, murine B7-4 expressed on transfected cells (murine, UniProt Q9EP73 19-290).
T4 construct: also called mouse B7-4; mB7-4
T4 sequence (Q9EP73 19-290 limits assumed): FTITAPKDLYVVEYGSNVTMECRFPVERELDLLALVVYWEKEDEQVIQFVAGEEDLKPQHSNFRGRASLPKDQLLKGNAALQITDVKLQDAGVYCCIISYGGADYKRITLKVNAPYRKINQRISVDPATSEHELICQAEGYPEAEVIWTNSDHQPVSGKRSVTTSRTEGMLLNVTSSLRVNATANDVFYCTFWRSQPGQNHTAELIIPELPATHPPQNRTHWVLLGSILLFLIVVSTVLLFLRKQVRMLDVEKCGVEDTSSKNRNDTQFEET
Briefly: flow cytometry on CHO cells expressing murine B7-4.

In the case of “B7-4.Fc / PDL1.Ig fusion protein (species not stated) (Fc fusion)”, in assay [1], the % CD69+ T cells at 24 hours, anti-CD3/B7-4.Fc (anti-CD3 alone 26%) is 26%; the % CD69+ T cells at 48 hours, anti-CD3/B7-4.Fc (anti-CD3 alone 46%) was 36%; the % CD69+ T cells at 72 hours, anti-CD3/B7-4.Fc (anti-CD3 alone 63%) was 42%; the % IL-2R+ (CD25) T cells at 24 hours, anti-CD3/B7-4.Fc (anti-CD3 alone 17%) amounted to 12%. Moreover, in assay [1], the % IL-2R+ (CD25) T cells at 48 hours, anti-CD3/B7-4.Fc (anti-CD3 alone 29%) was 17%; the % IL-2R+ (CD25) T cells at 72 hours, anti-CD3/B7-4.Fc (anti-CD3 alone 54%) came out at 15%; the % apoptotic T cells (propidium iodide and annexin positive) at 24 hours, anti-CD3/B7-4.Fc (anti-CD3 alone 3%) turned out to be 3%; the % apoptotic T cells at 48 hours, anti-CD3/B7-4.Fc (anti-CD3 alone 5%) came to 4%. In addition, the % apoptotic T cells at 72 hours, anti-CD3/B7-4.Fc (anti-CD3 alone 10%) in [1] came to 12%.
With B1, the binding result in [2] is listed as “no binding”.
Take B2: in [3], the binding result is recorded as “no binding”.
Still for that read-out and setting: as for B3, the entry is “no binding”.
B4: the binding result in [4] is on record as “no binding (tested: 5 ug/ml)”.
Take B5: the binding result in [5] and in assay [6] was “no binding” in each case.
With B6, in assay [7], the binding result was “no binding”.
Turning to B7, the binding result in [8] and in assay [9] was “binds” each time.
